Laboratory results published in patent US5237051A (Vanderbilt University, priority 1990, dated 1993).

These substances were tested against T1, GC-C (Rattus norvegicus, UniProt P23897).
T1 construct: expressed in transfected cells; host or cells: COS-7
T1 sequence (P23897 23-1072): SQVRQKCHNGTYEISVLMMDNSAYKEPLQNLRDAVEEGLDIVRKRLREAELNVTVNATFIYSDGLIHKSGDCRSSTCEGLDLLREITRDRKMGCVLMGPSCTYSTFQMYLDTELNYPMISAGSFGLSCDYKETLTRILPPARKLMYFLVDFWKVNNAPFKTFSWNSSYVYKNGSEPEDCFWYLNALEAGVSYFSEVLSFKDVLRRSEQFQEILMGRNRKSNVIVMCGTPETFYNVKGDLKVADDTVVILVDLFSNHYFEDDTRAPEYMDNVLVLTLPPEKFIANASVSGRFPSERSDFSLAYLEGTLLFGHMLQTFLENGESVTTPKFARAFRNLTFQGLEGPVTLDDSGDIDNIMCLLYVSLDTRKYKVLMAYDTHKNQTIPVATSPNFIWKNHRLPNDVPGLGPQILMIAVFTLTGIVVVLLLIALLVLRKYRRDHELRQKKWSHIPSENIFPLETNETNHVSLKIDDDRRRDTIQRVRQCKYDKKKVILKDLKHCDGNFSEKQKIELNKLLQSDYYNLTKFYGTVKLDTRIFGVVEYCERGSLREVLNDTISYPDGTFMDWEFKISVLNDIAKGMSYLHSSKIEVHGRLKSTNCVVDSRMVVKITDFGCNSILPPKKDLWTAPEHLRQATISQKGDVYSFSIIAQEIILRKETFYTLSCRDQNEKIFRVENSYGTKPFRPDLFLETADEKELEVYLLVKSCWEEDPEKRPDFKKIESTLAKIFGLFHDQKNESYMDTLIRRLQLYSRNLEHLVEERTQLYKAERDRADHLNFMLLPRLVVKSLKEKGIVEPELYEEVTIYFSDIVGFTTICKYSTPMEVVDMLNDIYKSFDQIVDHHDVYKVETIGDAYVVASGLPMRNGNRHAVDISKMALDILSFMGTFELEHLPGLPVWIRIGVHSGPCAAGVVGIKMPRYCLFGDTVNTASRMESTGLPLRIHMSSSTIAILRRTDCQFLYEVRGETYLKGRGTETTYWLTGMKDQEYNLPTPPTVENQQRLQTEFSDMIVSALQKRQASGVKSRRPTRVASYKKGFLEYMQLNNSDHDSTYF
Type: cell-based

Question: How did the “cyclic GMP levels after stimulation of transfected cells (in words)” value turn out when C-type natriuretic peptide was run?
Answer: did not increase cyclic GMP levels above background

Question: And the “stimulation of GC-C (in words)” value?
Answer: failed to stimulate

Question: With brain natriuretic peptide as the substance, how does the “cyclic GMP levels after stimulation of transfected cells (in words)” value read?
Answer: did not increase cyclic GMP levels above background

Question: What about the “stimulation of GC-C (in words)” value of the same substance?
Answer: failed to stimulate

Question: Which results are given for atrial natriuretic peptide?
Answer: cyclic GMP levels after stimulation of transfected cells (in words): did not increase cyclic GMP levels above background; stimulation of GC-C (in words): failed to stimulate
